± gives the uncertainty stated by the source.
Assay: protein stability index of a GFP-peptide fusion (yeast GPS) (PSI 1-4); higher = more stable; sorted into four equal gates, so the index is relative within each strain
Method in brief: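 Tiled 17-residue peptides from yeast proteins were fused downstream of GFP on a plasmid that also expresses Cherry, and the pooled library was carried in yeast. Mid-log cultures grown in leucine-free medium were sorted into four equal gates by GFP/Cherry fluorescence ratio. Plasmids from each gate were PCR-amplified and Illumina-sequenced, and reads were assigned to strains by barcodes. Each peptide's protein stability index is the sum, over gates, of the gate's read frequency multiplied by its gate number.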

Sequence	protein stability index (doa10∆)	protein stability index (pdr5∆)	protein stability index (san1∆)	protein stability index (ubr1∆)
RQTTSNTGLLNKANIQA [RPN11]	3 ± 0.092	3.02 ± 0.072	3.17 ± 0.054	3.19 ± 0.07
ISSAKLDKFTDGGLFTL [QCR2]	2.42 ± 0.13	3.06 ± 0.15	3.23 ± 0.088	3.21 ± 0.14
MIIFLKNYDATDKPFSS [CSI1]	2.63 ± 0.059	2.85 ± 0.062	2.92 ± 0.05	2.92 ± 0.048
RVRVTGGGHVSQVYAIR [RPS16A]	2.61 ± 0.048	2.87 ± 0.045	2.93 ± 0.044	2.76 ± 0.031
VQQRYTQSGGVRPFGVS [PRE6]	2.8 ± 0.22	–	–	–
RAKKTRALRRALTKFEA [RPL35A]	–	–	–	3.11 ± 0.15
FQLLEPLSTYNKNGNAV [PGD1]	2.81 ± 0.058	2.93 ± 0.057	2.77 ± 0.05	2.74 ± 0.036
KIIDNPKSFLKKDQSVL [YMR129W/POM152]	3.06 ± 0.083	3.34 ± 0.098	3.07 ± 0.071	3.2 ± 0.095
TCGSKGSTLNVSQMVAV [RPO31]	3.1 ± 0.13	2.89 ± 0.097	2.91 ± 0.15	2.79 ± 0.15
LLGKESFKKIIKFLLTF [YCS4]	1.45 ± 0.063	1.57 ± 0.11	1.18 ± 0.16	1.65 ± 0.06
SFTYELKQHNQNNLPPN [BRR2]	2.95 ± 0.094	3.21 ± 0.087	2.78 ± 0.1	2.9 ± 0.12
ERLQLLEDVVGAKSFEV [SMC3]	3.14 ± 0.21	–	–	–
MAQTATQQQPGAPGANA [SRP54]	3.31 ± 0.065	3.22 ± 0.088	3.33 ± 0.054	3.21 ± 0.05
STNGLGMCQLYFWHKIW [SNU114]	–	1.24 ± 0.24	2.56 ± 0.21	–
PLIMATCGSKGSTLNVS [RPO31]	2.84 ± 0.12	2.05 ± 0.074	2.54 ± 0.1	2.23 ± 0.069
VAPFMIKYEFNGIPLKS [YMR129W/POM152]	2.54 ± 0.077	1.91 ± 0.045	2.38 ± 0.083	2.75 ± 0.073
NKGAKAEDVALNEQVKK [NAS6]	2.98 ± 0.2	2.96 ± 0.19	2.77 ± 0.15	3.1 ± 0.075
TPLTENILIASLMDTLI [YCG1]	1.86 ± 0.049	1.7 ± 0.04	2.07 ± 0.069	2.35 ± 0.035
DIWSISKKRQAEKLVPL [YML031W/NDC1]	2.64 ± 0.089	2.78 ± 0.076	2.35 ± 0.073	2.55 ± 0.062
EPELRVLSTEEILNIFK [RPO21]	3.43 ± 0.22	3.45 ± 0.17	3.51 ± 0.084	3.55 ± 0.23
RQSSDESDNYRLLPNGS [YML031W/NDC1]	3.03 ± 0.06	2.97 ± 0.06	3.13 ± 0.078	3.05 ± 0.054
SLAVRSLQDRSSLVRRN [YCS4]	2.4 ± 0.041	2.71 ± 0.047	2.35 ± 0.045	2.59 ± 0.038
QESLVKLFTTNELMRWP [RPN5]	2.96 ± 0.21	3.72 ± 0.3	3.15 ± 0.12	2.91 ± 0.13
ELPKKLLNLPPFQVSSF [SRB8]	1.77 ± 0.039	1.85 ± 0.034	1.9 ± 0.055	1.78 ± 0.041
AATMTSAPPPALPHVEI [RGR1]	2.52 ± 0.072	2.83 ± 0.083	2.49 ± 0.079	2.3 ± 0.055
NPFTSATSSTNANAGLF [YOR098C/NUP1]	2.72 ± 0.077	2.84 ± 0.1	2.82 ± 0.093	3.31 ± 0.074
SSNTNNNTNNNNTNTGA [SWI1]	3.48 ± 0.071	3.29 ± 0.069	3.29 ± 0.057	3.33 ± 0.065
